{"source": "patent US20090191198A1", "about": "(EBERHARD KARLS UNIVERSITAT TUBINGEN, published 2009)", "binders": {"B1": {"name": "NKp80-ED tetramers (biotinylated NKp80 ectodomain tetramerized with PE- or APC-labelled streptavidin) (receptor, not shown: large carriers; small tags and cut ends)", "chain": "QGVLLKCQKGSCSNATQYEDTGDLKVNNGTRRNISNKDLCASRSADQTVLCQSEWLKYQGKCYWFSNEMKSWSDSYVYCLERKSHLLIIHDQLEMAFIQKNLRQLNYVWIGLNFTSLKMTWTWVDGSPIDSKIFFIKGPAKENSCAAIKESKIFSETCSSVFKWICQY", "modifications": "biotinylated with BirA ligase at the BirA-tag ; Biotinylated by BirA ligase at the BirA-tag. Tetramerized on phycoerythrin- or allophycocyanin-labelled streptavidin (four copies per streptavidin, carrier not in the letters).", "notes": "Same polypeptide as m1, tetramerized on labelled streptavidin before use; also called sNKp80-ED tetramers"}, "B2": {"name": "AICL (Activation-induced C-type Lectin), natural, on myeloid cells (U937, THP-1, monocytes, macrophages, granulocytes) or in their lysates (ligand)", "chain": "MMTKHKKCFIIVGVLITTNIITLIVKLTRDSQSLCPYDWIGFQNKCYYFSKEEGDWNSSKYNCSTQHADLTIIDNIEETNFLRRYKCSSDHWIGLKMAKNRTGQWVDGATFTKSFGMRGSEGCAYLSDDGAATARCYTERKWICRKRIH"}}, "key": {"[1]": {"molecular_target": "T1, soluble NKp80 ectodomain (NKp80-ED), biotinylated, used soluble or immobilized on streptavidin-coated … (human, UniProt Q9NZS2 64-231, biotinylated with BirA ligase at the BirA-tag ; Biotinylated by BirA ligase at the N-terminal BirA-tag (tag not in the letters). Used soluble or immobilized on streptavidin-coated microspheres. …)", "T1 construct": "Expressed in 293T cells from pSecTag2/HygroC; also called sNKp80-ED; imNKp80", "T1 sequence": "B1 chain", "test": "flow cytometry, NKp80-ED tetramers on microsphere-immobilized NKp80-ED"}, "[2]": {"molecular_target": "B1", "test": "flow cytometry, tetramers on U937 cells"}}, "data": [{"binder": "B1", "values": [{"measurement": "binding result", "setting": "[1]", "result": "no binding"}]}, {"binder": "B2", "values": [{"measurement": "binding result", "setting": "[2]", "result": "binds"}]}]}
